Laboratory results taken from IntAct's records for PubMed 16893902.

B1: Protein sprouty homolog 2 (Homo sapiens), O43597 (parent)
chain: MEARAQSGNGSQPLLQTPRDGGRQRGEPDPRDALTQQVHVLSLDQIRAIRNTNEYTEGPTVVPRPGLKPAPRPSTQHKHERLHGLPEHRQPPRLQHSQVHSSARAPLSRSISTVSSGSRSSTRTSTSSSSSEQRLLGSSFSSGPVADGIIRVQPKSELKPGELKPLSKEDLGLHAYRCEDCGKCKCKECTYPRPLPSDWICDKQCLCSAQNVIDYGTCVCCVKGLFYHCSNDDEDNCADNPCSCSQSHCCTRWSAMGVMSLFLPCLWCYLPAKGCLKLCQGCYDRVNRPGCRCKNSNTVCCKVPTVPPRNFEKPT
B2: Protein sprouty homolog 1 (Homo sapiens), O43609 (parent)
chain: MDPQNQHGSGSSLVVIQQPSLDSRQRLDYEREIQPTAILSLDQIKAIRGSNEYTEGPSVVKRPAPRTAPRQEKHERTHEIIPINVNNNYEHRHTSHLGHAVLPSNARGPILSRSTSTGSAASSGSNSSASSEQGLLGRSPPTRPVPGHRSERAIRTQPKQLIVDDLKGSLKEDLTQHKFICEQCGKCKCGECTAPRTLPSCLACNRQCLCSAESMVEYGTCMCLVKGIFYHCSNDDEGDSYSDNPCSCSQSHCCSRYLCMGAMSLFLPCLLCYPPAKGCLKLCRRCYDWIHRPGCRCKNSNTVYCKLESCPSRGQGKPS

What was measured:
cbl_human CBL, P22681 [1] = variants of: B1; settings: with cbl_human CBL
grb2_human GRB2, P62993 [2] = variants of: B1; settings: with grb2_human GRB2, P62993
Target sequence in this assay (P62993 whole entry, looked up): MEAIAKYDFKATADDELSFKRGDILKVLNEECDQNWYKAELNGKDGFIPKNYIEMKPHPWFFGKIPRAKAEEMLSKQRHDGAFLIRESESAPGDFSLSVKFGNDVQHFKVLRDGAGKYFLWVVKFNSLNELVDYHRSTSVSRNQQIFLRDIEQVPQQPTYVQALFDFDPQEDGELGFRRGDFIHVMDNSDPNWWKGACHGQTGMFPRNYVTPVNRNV

cbl_human CBL, P22681 [3] = variants of: B2; settings: with cbl_human CBL; remark: listed apart in the source
grb2_human GRB2, P62993 [4] = variants of: B2; settings: with grb2_human GRB2, P62993; remark: listed apart in the source
Target sequence in this assay (P62993 whole entry, looked up): as above

Variant	effect of a mutation on the interaction (cbl_human CBL, P22681 [1])	effect of a mutation on the interaction (grb2_human GRB2, P62993 [2])	effect of a mutation on the interaction (cbl_human CBL, P22681 [3])	effect of a mutation on the interaction (grb2_human GRB2, P62993 [4])
MEARAQSGNGSQPLLQTPRDGGRQRGEPDPRDALTQQVHVLSLDQIRAIRNTNEFTEGPTVVPRPGLKPAPRPSTQHKHERLHGLPEHRQPPRLQHSQVHSSARAPLSRSISTVSSGSRSSTRTSTSSSSSEQRLLGSSFSSGPVADGIIRVQPKSELKPGELKPLSKEDLGLHAYRCEDCGKCKCKECTYPRPLPSDWICDKQCLCSAQNVIDYGTCVCCVKGLFYHCSNDDEDNCADNPCSCSQSHCCTRWSAMGVMSLFLPCLWCYLPAKGCLKLCQGCYDRVNRPGCRCKNSNTVCCKVPTVPPRNFEKPT [Y55F]	disrupting interaction	decreasing interaction	–	–
MDPQNQHGSGSSLVVIQQPSLDSRQRLDYEREIQPTAILSLDQIKAIRGSNEFTEGPSVVKRPAPRTAPRQEKHERTHEIIPINVNNNYEHRHTSHLGHAVLPSNARGPILSRSTSTGSAASSGSNSSASSEQGLLGRSPPTRPVPGHRSERAIRTQPKQLIVDDLKGSLKEDLTQHKFICEQCGKCKCGECTAPRTLPSCLACNRQCLCSAESMVEYGTCMCLVKGIFYHCSNDDEGDSYSDNPCSCSQSHCCSRYLCMGAMSLFLPCLLCYPPAKGCLKLCRRCYDWIHRPGCRCKNSNTVYCKLESCPSRGQGKPS [Y53F]	–	–	disrupting interaction	decreasing interaction
